In patent publication US7662404B2, “Transdermal delivery system for dried particulate or lyophilized peptides and polypeptides” (TransPharma Medical Ltd., priority 2002, dated 2010):
Like-named read-outs stand apart in the source and are kept apart here.

Legend:
plasma Ca++ = assay: In vivo bioactivity of sCT: plasma Ca++ concentrations in pigs (Example 10)
Method: In vivo bioactivity of sCT was evaluated by measuring plasma Ca^++ concentrations. […] Transdermal administration from the printed patches yielded a ˜20% decrease in Ca^++ concentrations, regardless of sCT dose. Thus, sCT delivered transdermally remained intact and biologically active.

[1] = Plasma sCT after SC injection or printed patch with ViaDerm in pigs (Example 10); type: in vivo; settings: for bioavailability: compared to SC
Method: Pigs (males, 10-12 kg, Large white) were treated as follows:
Group 1: 1 ml of salmon calcitonin containing 16.7 μg peptide (Miacalcin, Novartis Pharma Ag, Basle, Switzerland) was injected subcutaneously (S.C) to each pig (total 3 pigs).
Group 2: Each pig underwent 2 ViaDerm applications on one site on the back (150 micro-channels per cm^2). Patches of 400 μg sCT/patch of 1.4 cm^2 were placed on the treated area (total 3 pigs).
Group 3: Each pig underwent 2 ViaDerm applications on one site on the back (150 micro-channels per cm^2). Patches of 200 μg sCT/patch of 1.4 cm^2 were placed on the treated area (total 3 pigs).
In order to determine sCT concentrations in pig plasma an ELISA assay was performed (Diagnostic Systems Laboratories, Inc. Webster, Tex., USA).

blood glucose = assay: Bioactivity of insulin in diabetic rats: blood glucose after printed patches or SC (Example 6); type: in vivo
Method: ViaDerm apparatus was used. The density of the microelectrode array used in these studies was 100 microelectrodes/cm^2. The device was applied twice on each location, so the density of the micro channels was 200/cm^2. The skin was treated with an applied voltage of 330V, frequency of 100 kHz, two bursts, 700 microsecond burst length, and no current limitation.
Male rats (300-325, Sprague Dawley, Harlan laboratories Ltd., Israel) were deprived of food and received water as libitum 48 hr prior to patch applications. Streptozotocin (55 mg/kg in citric buffer, 0.1 M, pH 4.5) was injected intraperitonally (IP) to the rats 24 hr prior to patch applications in order to induce diabetes. […] The diabetic rats were premedicated with IP injections of 10% ketamin/2% xylazine solution at a ratio of 70:30, 1 ml/kg. Anesthesia was maintained with either isofluorane or halothane gas. The abdominal skin hair was shaved carefully, and was cleaned with isopropyl alcohol. After 30 min, transepidermal water loss measurements (TEWL, Dermalab Cortex Technology, Hadsund, Denmark) were performed to check skin integrity. Skin micro-channeling was performed by the use of the ViaDerm instrument with the conditions described above. TEWL was then measured again to control the operation. The treated skin was covered with Lispro (HUMALOG®) or Regular (HUMULIN®R) 1.5 IU insulin-printed patches. SC injections of 0.4 IU served as a positive control. Blood samples were withdrawn from the tip of the rat's tail at 0, 2, 4, and 6 hr post application, and glucose level was determined.

[2] = rhGH in serum after printed patches and ViaDerm, hypophysectomized rats (Example 4); type: in vivo
Method: The materials and methods applied in this example were similar to those in EXAMPLE 3 except from the following points: • a) The animals were treated with ELTROXIN™ and hydrocortisone only until 10 days before initiating the treatments. • b) The test article was a printed patch of rhGH in two doses: 0.15 mg/patch and 0.5 mg/patch. The patches were composed of a backing liner (DOW BLF2080™, The Dow Chemical Company, MI, USA) on which drops of GENOTROPIN® were evenly placed. All the patches contained 144 drops over an area 1.4×1.4 cm^2. The printed patch was attached to the skin by a fixing patch, 2 cm×2 cm with 300 μm thick (wet) glue (DURO-TAK™ 3872516; National Starch & Chemical Pty Ltd, NSW, Australia) on the backing liner. • c) The experimental setup included 2 groups of 3 rats each: • Group 1: Treated with ViaDerm+one 0.15 mg printed patch. • Group 2: Treated with ViaDerm+one 0.5 mg printed patch. Results 1. Printed Patches

[3] = Bioavailability of rhGH printed patches with ViaDerm in guinea pigs (Example 5); type: in vivo
Method: (§1) ViaDerm micro-channeling apparatus was used. The density of the microelectrode array used in these studies was 100 microelectrodes/cm^2. The device was applied twice on each location, so the density of the micro channels was 200/cm^2. The skin was treated with an applied voltage of 330V, frequency of 100 kHz, two bursts, 700 microsecond burst length, and no current limitation.
(§2) Male Guinea pigs (500-800 grams, Dunkin Hartley, Harlan laboratories Ltd., Israel) and Male rats (350-400, Sprague Dawley, Harlan laboratories Ltd., Israel), were premedicated with IP injections of 10% ketamin/2% xylazine solution at a ratio of 70:30, 1 ml/kg. Anesthesia was maintained with either isofluorane or halothane gas. The abdominal skin hair was shaved carefully, and was cleaned with isopropyl alcohol. After 30 min, transepidermal water loss, measurements (TEWL, Dermalab Cortex Technology, Hadsund, Denmark) were performed to check skin integrity. Skin micro channeling was performed by the use of the ViaDerm instrument with the conditions described above. TEWL was then measured again to control the operation. The treated skin was covered with the rhGH patches and blood samples were withdrawn from a preinserted carotid cannula in guinea pig or from the rat's tail at predetermined times post application. The serum was separated by centrifugation and analyzed for rhGH by Elisa kit (DSL-10-1900, Diagnostic Systems Laboratories, Inc. Webster, Tex., USA). The transdermal delivery of rhGH was compared to that of subcutaneous hGH delivery.

[4] = rat, in vivo
Source text: • Animals: Rats, males, 250 gr, Sprague Dawley, hypophysectomized at Harlan USA labs. […] This fraction was spread on a hypoallergenic clear medical tape (Kendall Curity®, Emergency Medical Products Inc., USA) in doses specified below, and placed directly onto the skin as a transdermal patch. […]
The transdermal groups (1 and 2) received a treatment including: Shaving, drying, baseline Trans Epidermal Water Loss measurement (TEWL; DERMALAB® Cortex Technology, Hadsund, Denmark), two ViaDerm applications of 200 micropores/cm^2 (placebo for Group 2), second TEWL measurement and patch application. At the end of the study all animals were sacrificed by an IV overdose of sodium-pentobarbital (140 mg/kg). • ViaDerm parameters: burst length—500 μsec, starting amplitude—250 V, number of bursts—5 and applications per site—2 (200 micropores/cm^2). • Blood sampling: Blood samples (0.5 ml/rat) were withdrawn at 6 time points, t=0, 2, 4, 6, 12 and 24 hours, from the tail end of anesthetized rats (20 mg/rat ketamine, intramuscular). • Serum analysis: rhGH in the serum was detected using an Elisa kit (DSL-10-1900; Diagnostic Systems Laboratories, TX, USA) specific for rhGH. […] IGF-1 was detected according to RIA protocol (Endocrine, Vol. 16, no. 1, 1-6, October 2001). […]

[5] = Bioavailability of rhGH printed patches with ViaDerm in normal rats (Example 5); type: in vivo
Method: as §1, §2

IGF-1 = IGF-1 in the serum of hypophysectomized rats after rhGH (Example 3); type: in vivo
Source text: GH is produced by the pituitary gland (hypophysis) and acts in several ways and on several targets. A distinctive role attributed to GH is the induction of IGF-1 production by liver cells (hepatocytes). As GH is the main trigger for the production of IGF-1, the activity of GH can be detected by measuring IGF-1 levels in the blood. GH levels in the blood can be directly analyzed as well.
Results 1. rhGH in the Serum

[6] = diabetic rats, 1.5 IU insulin-printed patch on ViaDerm treated skin
[7] = diabetic rats, 1.5 IU insulin-printed patch on ViaDerm treated skin, from about 400 mg/dl
[8] = hyperglycemic rats, transdermal
[9] = Group 1: ViaDerm + 0.15 mg printed patch
[10] = Group 2: ViaDerm + 0.5 mg printed patch
[11] = Transdermal printed patch, dose 50 (mg)
[12] = Transdermal printed patch, dose 150 (mg)
[13] = Transdermal printed patch, dose 300 (mg)
[14] = Transdermal printed patch, dose 400 (mg)
[15] = Transdermal printed patch, dose 75 μg
[16] = Transdermal printed patch, dose 150 μg
[17] = Transdermal printed patch, dose 300 μg
[18] = Transdermal printed patch, dose 450 μg
[19] = Group 1: ViaDerm + ~0.8 mg rhGH powder patch
[20] = Group 3: SC injection 150 μg/rat

CC(C)C[C@H](NC(=O)[C@H](CCCCN)NC(=O)CNC(=O)[C@H](CC(C)C)NC(=O)[C@@H](NC(=O)[C@@H]1CSSC[C@H](N)C(=O)N[C@@H](CO)C(=O)N[C@@H](CC(N)=O)C(=O)N[C@@H](CC(C)C)C(=O)N[C@@H](CO)C(=O)N[C@@H]([C@@H](C)O)C(=O)N1)C(C)C)C(=O)N[C@@H](CO)C(=O)N[C@@H](CCC(N)=O)C(=O)N[C@@H](CCC(=O)O)C(=O)N[C@@H](CC(C)C)C(=O)N[C@@H](Cc1c[nH]cn1)C(=O)N[C@@H](CCCCN)C(=O)N[C@@H](CC(C)C)C(=O)N[C@@H](CCC(N)=O)C(=O)N[C@H](C(=O)N[C@@H](Cc1ccc(O)cc1)C(=O)N1CCC[C@H]1C(=O)N[C@@H](CCCNC(=N)N)C(=O)N[C@H](C(=O)N[C@@H](CC(N)=O)C(=O)N[C@H](C(=O)NCC(=O)N[C@@H](CO)C(=O)NCC(=O)N[C@H](C(=O)N1CCC[C@H]1C(N)=O)[C@@H](C)O)[C@@H](C)O)[C@@H](C)O)[C@@H](C)O [sCT]
decrease of plasma Ca++ concentrations from time 0 (plasma Ca++; SC administration 16.7 μg): ~25% | decrease in plasma Ca++ concentrations (plasma Ca++; transdermal from printed patches, regardless of sCT dose (200 or 400 μg)): ~20% | Amount delivered ([1]; Printed patch 400 μg): 31.92 µg | bioavailability ([1]; Printed patch 400 μg): 7.98% | AUC ([1]; S.C. 16.7 μg, neck): 206.377 ± 63.647 pg·min/mL | Cmax ([1]; male, Large white, pig, plasma, other: transdermal printed patch on ViaDerm-treated skin, 200 ug, patch 200 μg, ViaDerm, back): 2.33 ± 0.673 ng/mL | bioavailability ([1]; male, Large white, pig, plasma, other: transdermal printed patch on ViaDerm-treated skin, 200 ug, patch 200 μg, read-out: bioavailability): 10% | Cmax ([1]; male, Large white, pig, plasma, other: transdermal printed patch on ViaDerm-treated skin, 400 ug, Printed patch 400 μg, ViaDerm, back): 2.82 ± 1.74 ng/mL | bioavailability ([1]; male, Large white, pig, plasma, other: transdermal printed patch on ViaDerm-treated skin, 400 ug, Printed patch 400 μg, read-out: bioavailability): 8% | Cmax ([1]; male, Large white, pig, plasma, sc, 16.7 ug, S.C. 16.7 μg, neck): 2.21 ± 1.12 ng/mL | Amount delivered ([1]; patch 200 μg): 20.12 µg | bioavailability ([1]; patch 200 μg): 10.06%

HUMALOG®: human recombinant insulin Lispro, 100 IU/ml (Lilly), used in 1.5 IU printed patches
blood glucose level after 6 hr (blood glucose; [6]): about 30 mg/dl | blood glucose level three hours following application (blood glucose; [7]): about 70 mg/dl

HUMULIN®: human recombinant insulin, regular, 100 IU/ml (Lilly), used in 1.5 IU printed patches
blood glucose level after 6 hr (blood glucose; [6]): about 30 mg/dl | blood glucose level three hours following application (blood glucose; [7]): about 70 mg/dl

insulin: insulin given as SC injection of 0.4 IU, positive control; product not specified
blood glucose level after 6 hr (blood glucose; diabetic rats, SC injection 0.4 IU): about 200 mg/dl | blood glucose level three hours following administration (blood glucose; diabetic rats, SC injection 0.4 IU, from about 400 mg/dl): about 70 mg/dl | period of normal glucose level (blood glucose; [8]): 4 to 6 h | time to normal glucose level (100 mg/dl to 200 mg/dl glucose) (blood glucose; [8]): 1 to 3 h

rhGH: recombinant human growth hormone, 22 kDa polypeptide; GENOTROPIN (Pharmacia & Upjohn) with mannitol
AUC absolute value [2, 9]: 1594 ng·h/mL | time of peak rhGH serum level [2, 9]: 4 h | AUC absolute value [2, 10]: 6563 ng·h/mL | time of peak rhGH serum level [2, 10]: 6 h | Bioavailability (% of SC) ([3]; SC, dose 50 (mg printed; reference)): 100 % of SC | AUC ([3]; SC, dose 50 (mg)): 176 ng·h/mL | AUC [3, 11]: 57 ng·h/mL | Bioavailability (% of SC) [3, 11]: 32.4 % of SC | AUC [3, 12]: 175 ng·h/mL | Bioavailability (% of SC) [3, 12]: 33.1 % of SC | AUC [3, 13]: 362 ng·h/mL | Bioavailability (% of SC) [3, 13]: 34.3 % of SC | AUC [3, 14]: 404 ng·h/mL | Bioavailability (% of SC) [3, 14]: 28.7 % of SC | bioavailability compared to the SC group [4]: 33.8% | AUC normalized for 0.1 mg rhGH ([4]; sc): 1128 µg·h/mL | AUC ([5]; SC, dose 150 μg): 489 ng·h/mL | Bioavailability (% of SC) ([5]; SC, dose 150 μg (reference)): 100 % of SC | AUC [5, 15]: 184 ng·h/mL | Bioavailability (% of SC) [5, 15]: 75.3 % of SC | AUC [5, 16]: 376 ng·h/mL | Bioavailability (% of SC) [5, 16]: 76.9 % of SC | AUC [5, 17]: 727 ng·h/mL | Bioavailability (% of SC) [5, 17]: 74.3 % of SC | AUC [5, 18]: 884 ng·h/mL | Bioavailability (% of SC) [5, 18]: 60.3 % of SC | IGF-1 in the serum (IGF-1; [19]): elevation of IGF-1 | time of maximal average IGF-1 concentration (IGF-1; [19]): 12 h | IGF-1 in the serum (IGF-1; Group 2: rhGH patch on intact skin): low level of IGF-1 | IGF-1 in the serum (IGF-1; [20]): anticipated elevation of IGF-1 | time of peak IGF-1 concentration (IGF-1; [20]): 12 h
